Results from patent US20080213817A1 (published 2008).

Molecular target: T1, mitogen-activated protein kinase/ERK kinase kinase 1 (MEKK1) (mouse, UniProt P53349 2-1493)
T1 construct: Endogenous protein co-immunoprecipitated from mouse thymocyte / T cell lysates, not a recombinant construct; also called MEK kinase 1; MAPK/ERK kinase kinase 1
T1 sequence (looked up): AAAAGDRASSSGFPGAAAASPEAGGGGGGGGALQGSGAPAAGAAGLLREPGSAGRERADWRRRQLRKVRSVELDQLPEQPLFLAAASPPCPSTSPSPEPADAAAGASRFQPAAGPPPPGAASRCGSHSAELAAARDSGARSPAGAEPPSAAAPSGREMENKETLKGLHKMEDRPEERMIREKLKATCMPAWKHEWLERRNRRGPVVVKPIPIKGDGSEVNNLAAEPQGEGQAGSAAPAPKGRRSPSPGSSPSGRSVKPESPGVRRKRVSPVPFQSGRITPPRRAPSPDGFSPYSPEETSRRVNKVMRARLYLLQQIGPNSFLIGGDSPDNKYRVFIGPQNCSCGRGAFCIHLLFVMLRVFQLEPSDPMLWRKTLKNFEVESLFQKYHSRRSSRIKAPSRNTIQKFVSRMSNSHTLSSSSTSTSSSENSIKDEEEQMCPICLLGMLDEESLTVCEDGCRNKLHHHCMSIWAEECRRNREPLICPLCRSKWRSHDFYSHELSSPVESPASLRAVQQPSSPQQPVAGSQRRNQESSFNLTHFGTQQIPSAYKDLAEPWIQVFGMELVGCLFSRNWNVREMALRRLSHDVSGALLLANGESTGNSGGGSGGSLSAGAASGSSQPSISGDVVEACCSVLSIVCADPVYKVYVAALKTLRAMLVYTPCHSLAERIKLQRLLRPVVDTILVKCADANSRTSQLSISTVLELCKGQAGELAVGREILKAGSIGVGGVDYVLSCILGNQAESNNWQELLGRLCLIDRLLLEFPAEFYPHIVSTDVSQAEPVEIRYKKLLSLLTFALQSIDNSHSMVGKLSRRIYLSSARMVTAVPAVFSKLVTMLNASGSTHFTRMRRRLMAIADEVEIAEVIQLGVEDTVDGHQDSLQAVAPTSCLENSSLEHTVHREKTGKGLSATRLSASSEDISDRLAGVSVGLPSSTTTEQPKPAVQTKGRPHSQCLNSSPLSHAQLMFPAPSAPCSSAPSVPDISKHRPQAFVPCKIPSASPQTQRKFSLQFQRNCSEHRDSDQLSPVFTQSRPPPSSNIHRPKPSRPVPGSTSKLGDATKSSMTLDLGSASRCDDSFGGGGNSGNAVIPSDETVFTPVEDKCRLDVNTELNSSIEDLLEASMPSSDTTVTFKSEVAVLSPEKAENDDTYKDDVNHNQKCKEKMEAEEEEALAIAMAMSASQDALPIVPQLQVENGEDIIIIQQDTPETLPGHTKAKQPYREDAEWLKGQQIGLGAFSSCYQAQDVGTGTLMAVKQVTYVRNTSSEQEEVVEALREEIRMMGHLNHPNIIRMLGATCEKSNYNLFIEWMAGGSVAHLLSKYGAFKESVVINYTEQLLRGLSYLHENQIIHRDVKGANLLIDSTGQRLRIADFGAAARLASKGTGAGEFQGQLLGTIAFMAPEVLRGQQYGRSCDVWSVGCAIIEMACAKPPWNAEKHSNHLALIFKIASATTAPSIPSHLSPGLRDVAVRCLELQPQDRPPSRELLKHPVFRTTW
Experiment: co-immunoprecipitation (summary of the results)

B1: E3 ubiquitin ligase Itch (enzyme)
chain: not shown
notes: Endogenous protein from mouse thymocytes / T cells; also called Itchy E3 ubiquitin protein ligase; AIP4
B1: binds.
